Experimental data as given in US7919580B2, “Polysaccharide-protein binding model and nano-fibril formation of a starch binding domain” (priority 2008, dated 2011).

Columns and labels:
RoGACBM21 = molecular target: T1, RoGACBM21 (Rhizopus oryzae, UniProt P07683); settings: reported binding assay results; read-out: Kd (binding affinity) of soluble ligand with RoGACBM21; cited from earlier work
T1 construct: the recombinant SBD of 108 amino acid residues; 6xHis (C); made in house; host or cells: E. coli BL21-Gold (DE3), pET23a(+)

[1] = Sedimentation velocity ultracentrifugation; assay type: physicochemical
Method: The sedimentation velocity studies were performed at 50,000 rpm for 30 μM (solid line) and 60 μM (dotted line) SBD, and absorbance scans were recorded at 280 nm.

[2] = Thioflavin T fluorescence (ThT) assay for fibril formation; assay type: physicochemical; settings: SBD sample heated at 97° C.
Method: Purified SBDs or synthetic peptides were dissolved in 10 mM sodium-citrate or phosphate-citrate buffer to a final concentration of 100 μM (at indicated pH). […] The measurements were recorded in a Perkin Elmer LS-55 spectrofluorometer at 25° C.
The relative fluorescence, peaked at 482 nm, subtracted from the background of buffer from the total fluorescence were measured as the amount of fibrillar aggregates with the excitation wavelength (slit width=4 nm) set at 450 nm and monitoring emission wavelength (slit width=8 nm) set at from 470 to 630 nm.

[3] = Starch binding isotherm (saturation binding assay); settings: insoluble starch, 50 mM sodium acetate pH 5.5, 25° C., 16 h
Method: The starch binding isotherm was analyzed as a saturation binding assay as reported. Wild-type and mutant RoGACBM21 derivatives (100 μL, in 50 mM sodium acetate, pH 5.5) were mixed with 0.1 mg of prewashed insoluble starch and incubated at 25° C. with gentle stirring for 16 h. After centrifugation at 16,000×g for 10 min at 4° C., the protein concentration of the supernatant (unbound protein) was determined by BCA assay, and the amount of bound protein was calculated from the difference between the initial and unbound protein concentrations. The Kd and Bmax values were determined by fitting to the non-linear regression of the binding isotherms using a standard single-site binding model.

[4] = starch; fold higher than AnGACBM20; cited from earlier work
[5] = Fluorescence spectrophotometry of binding to βCD; settings: intrinsic protein fluorescence, 50 mM sodium acetate pH 5.5, 25° C.; read-out: β-cyclodextrin Kd
Method: Fluorescence spectrophotometry of the binding of wild-type or mutant RoGACBM21 to βCD was recorded by measuring changes in the intrinsic protein fluorescence intensity. Experiments were performed in 50 mM sodium acetate, pH 5.5, at 25° C. using a PerkinElmer LS-55 spectrophotometer. Circular and linear carbohydrates (2 to 20 mM) were titrated into RoGACBM21 (1 μM, 2 mL), and the fluorescence-emission spectrum was monitored at 350 nm with a fixed excitation at 280 nm. The relative changes in fluorescence intensity were plotted against ligand concentration, and the data were fitted to a simulated curve using the appropriate equation for a single binding site.

[6] = Circular dichroism spectroscopy and thermal unfolding; assay type: physicochemical; settings: far-UV CD at 215 nm; for β-sheet signals upon heating: ascending temperature
Method: (A) CD spectra were collected from 200 to 260 nm at 25° C. at a concentration of 50 μM in 10 mM sodium acetate buffer (pH 4.5). (B) Thermal unfolding of SBD was measured by monitoring changes in the far-UV CD spectra at 215 nm. (C) CD spectra of SBD were recorded between 200 and 260 nm at various temperatures
CD spectra and thermostabilities were recorded in a 0.1-cm cuvette using an Aviv model 202 CD Spectrometer. Data collection and calculation were carried out as previously described.

OC[C@H]1O[C@@H]2O[C@H]3[C@H](O)[C@@H](O)[C@@H](O[C@H]4[C@H](O)[C@@H](O)[C@@H](O[C@H]5[C@H](O)[C@@H](O)[C@@H](O[C@H]6[C@H](O)[C@@H](O)[C@@H](O[C@H]7[C@H](O)[C@@H](O)[C@@H](O[C@H]8[C@H](O)[C@@H](O)[C@@H](O[C@H]1[C@H](O)[C@H]2O)O[C@@H]8CO)O[C@@H]7CO)O[C@@H]6CO)O[C@@H]5CO)O[C@@H]4CO)O[C@@H]3CO [βCD, β-cyclodextrin]
Kd (RoGACBM21): ~5 µM

maltoheptaose [G7]
Kd (RoGACBM21): ~5 µM

B1: WT: recombinant starch-binding domain (family 21 carbohydrate binding module) of Rhizopus oryzae glucoamylase, 108 amino acid residues (protein, listed as Rhizopus oryzae)
chain: ASIPSSASVQLDSYNYDGSTFSGKIYVKNIAYSKKVTVVYADGSDNWNNNGNIIAASFSGPISGSNYEYWTFSASVKGIKEFYIKYEVSGKTYYDNNNSANYQVSTSK
modifications: DOMAIN (1)..(108)
s20 (sedimentation coefficient) ([1]; 30 μM, 50,000 rpm): 1.3 S
oligomeric state in solution ([1]; high concentration (60 μM)): oligomeric forms of SBD appeared
oligomeric state in solution ([1]; low concentration (30 μM)): mainly as a single monomeric species
increase in ThT fluorescence emission intensity at 482 nm [2]: 9 fold
Kd [3]: 1.4 ± 0.1 µM
Starch Bmax [3]: 41.1 ± 1.1 µmol/g
maximal amount of bound protein (Bmax) relative to AnGACBM20 [4]: 40-70 fold
Kd [5]: 5.1 ± 0.7 µM
apparent temperature for unfolding [6]: approximately 65 °C

B2: SBD (K108H): SBD mutant K108H (protein)
chain: ASIPSSASVQLDSYNYDGSTFSGKIYVKNIAYSKKVTVVYADGSDNWNNNGNIIAASFSGPISGSNYEYWTFSASVKGIKEFYIKYEVSGKTYYDNNNSANYQVSTSH
modifications: Modified SBD.
β-sheet signals upon heating [6]: still showed strong β-sheet signals upon heating

B3: SBD (K108R): SBD mutant K108R (protein)
chain: ASIPSSASVQLDSYNYDGSTFSGKIYVKNIAYSKKVTVVYADGSDNWNNNGNIIAASFSGPISGSNYEYWTFSASVKGIKEFYIKYEVSGKTYYDNNNSANYQVSTSR
modifications: Modified SBD.
β-sheet signals upon heating [6]: still showed strong β-sheet signals upon heating

B4: SBD (K108D): SBD mutant K108D (protein)
chain: ASIPSSASVQLDSYNYDGSTFSGKIYVKNIAYSKKVTVVYADGSDNWNNNGNIIAASFSGPISGSNYEYWTFSASVKGIKEFYIKYEVSGKTYYDNNNSANYQVSTSD
modifications: Modified SBD.
β-sheet signals upon heating [6]: diminished the β-sheet signals upon heating
